Test [1] has as its target GST-SNAP25 197 (UniProt P60880).
For test [2], the target named is GST-SNAP25 FL (UniProt P60880).
Test [3] concerns the target GST-SNAP25 197 (UniProt P60880). Briefly: direct ELISA; A450 on GST-SNAP25 197 divided by A450 on GST-SNAP25 FL. In general terms: In an ELISA, binding on a coated surface is turned into a signal by an enzyme label.

Positions count from the first letter of the chain named.

Chain of GST-SNAP25 FL (P60880 whole entry): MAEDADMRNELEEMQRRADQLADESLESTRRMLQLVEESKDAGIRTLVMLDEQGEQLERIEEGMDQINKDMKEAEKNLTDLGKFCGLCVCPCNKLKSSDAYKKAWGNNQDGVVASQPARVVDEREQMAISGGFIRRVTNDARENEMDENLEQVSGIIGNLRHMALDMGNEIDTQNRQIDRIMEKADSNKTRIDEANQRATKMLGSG
Chain of GST-SNAP25 197 (P60880 1-197 limits assumed): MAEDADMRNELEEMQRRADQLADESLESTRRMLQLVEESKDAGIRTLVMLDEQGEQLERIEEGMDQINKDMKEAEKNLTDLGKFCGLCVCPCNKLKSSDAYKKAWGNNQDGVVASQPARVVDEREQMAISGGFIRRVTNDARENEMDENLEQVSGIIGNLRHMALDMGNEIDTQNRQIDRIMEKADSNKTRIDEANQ

B1: D2 (antibody, V domains shown)
VH: DVKLQESGPGLVKPSQSLSLTCSVTGYSITSGYYWNWIRQFPGNKLEWMGYIRYDGSNNYNPSLKNRISITRDTSKNQFFLKLNSVTTEDTASYYCARDRDSSYYFDYWGQGTALTVSS
VL: DIVMTQSSSYLSVSLGGRVTITCKASDHINNWLAWYQQKPGNAPRLLISDTTSLETGVPSRFSGSGSGKDYTLSITSLQTEDVATYYCQQYWSAPPTFGGGTKLEIK
On to B1, for which the A450 with SNAP25 197 in test [1] is 0.048. The molecule also came in with an A450 with SNAP25 FL in test [2] of 1.45. Besides, in test [3], the Ratio 197/206 was found to be 0.03.

B2: D3 (antibody, V domains shown)
VH: EVQLEESGGGLVQPGGSLKLSCAASGFTFSNYGMSWVRQTPDKRLELVATINSNGGTTYYPDSVKGRFTISRDNAKNTLYLQMSSLKSEDSAMYYCARDRDAMDYWGQGTSVTVSS
VL: DVLMTQTPLSLPVSLGDQASISCRSSQSIVNSHGNTYLEWYLQKPGQSPKLLIYKVSNRFSGVPDRFSGSGSGTDFTLKISRVEAEDLGVYYCFQGSHVPWTFGGGTKLEIK
As for B2, the A450 with SNAP25 197 in test [1] is 1.62. Further, the A450 with SNAP25 FL in test [2] amounted to 0.125. In addition, in test [3], the Ratio 197/206 was 12.9.

B3: B4 (antibody, V domains shown)
VH: EVKLVESGGGLVKPGGSLKLSCAASGFTFSNYGMSWVRQTPEKRLEWVATISSGGSYTYYPDSVKGRFTISRDNAKNTLYLQMSSLRSEDTAMYYCARHEGGGNPYFDYWGQGTTLTVSS
VL: B2 VL with I29L, N31H, H33N, E39H, Y92F, F94S, G96N, S97T, H98L
As for B3, the A450 with SNAP25 197 in test [1] was found to be 1.8. Besides, the A450 with SNAP25 FL in test [2] came to 2.16. Besides, the Ratio 197/206 in test [3] turned out to be 0.83.

B4: C4 (antibody, V domains shown)
VH: DVKLQESGPGLVKPSQSLSLTCTVTGYSITSDYAWNWIRQFPGNKLEWMGYISYSVGTRYNPSLKSRISITRDTSKNQFFLLLKSVTNEDTATYFCARKGEYGFAYWGQGTLVTVSA
VL: DIVMTQSPASLAVSLGQRATISCRASKSVSTSGYSYMHWYQQKPGQPPKLLIYLASNLESGVPARFSGSGSGTDFTLNIHPVEEEDAATYYCQHSRELPLTFGAGTKLELK
Consider B4, for which, in test [1], the A450 with SNAP25 197 is 0.919. In addition, the A450 with SNAP25 FL in test [2] came to 0.001. Moreover, the Ratio 197/206 in test [3] turned out to be 919.

B5: C24 (antibody, V domains shown)
VH: EVKLVESGGGLVQPKGSLKLSCAASGYTFNTYAMNWVRQAPGKGLEWVARIRSKSNNYTTYYADSVKDRFTISRDDSQSMLYLQINNLKTEDTAMYYCVGQILYYYVGSPAWFAYWGQGTLVTVSA
VL: B4 VL with Y53F, L100W, A104G, L110I
In turn, B5 had an A450 with SNAP25 197 in test [1] of 0.973. The same molecule yielded an A450 with SNAP25 FL in test [2] of 0.001. Also, the Ratio 197/206 in test [3] came to 973.

B6: C16 (antibody, V domains shown)
VH: EVQLQQSGAELARPGASVQMSCKAFGYTFTNYTMHWVRQRPGQGLEWIGFINPSSDYTNYNQKFKDKATLSADKSSSTAYMQLSSLTSEDSAVYYCARRIFYNGRTYAAMDYWGQGTSVTVSS
VL: B4 VL with T31S
The molecule B6 registered an A450 with SNAP25 197 in test [1] of 0.996. In test [2], this molecule registered an A450 with SNAP25 FL of 0.001. In addition, the Ratio 197/206 in test [3] turned out to be 996.

B7: C14 (antibody, V domains shown)
VH: EVKLVESGGGLVQPKGSLKLSCAASGFTFNTNAMNWVRQAPGKGLEWVARIRSKSDNYATYYADSVKDRFTISRDDSPSMLYLQMNNLKTEDTAMYYCVYGRSYGGLGYWGQGTLVTVSA
VL: B4 VL with M4L, M37V
On to B7, for which, in test [1], the A450 with SNAP25 197 came to 0.953. Moreover, in test [2], the A450 with SNAP25 FL was 0.001. In test [3], the Ratio 197/206 worked out at 953.

B8: C7 (antibody, V domains shown)
VH: B7 VH with E1Q, K3Q, S7T, D56N, P78Q, M80L, G108S
VL: B4 VL with T31S
B8: the A450 with SNAP25 197 in test [1] stood at 1.2. The A450 with SNAP25 FL in test [2] was 0.001. The Ratio 197/206 in test [3] is 1040.

For the origin of these results see KR20200072008A.
